Experimental data from paper PMC8443706, “Functionally diverse heteromeric traps for ligands of the transforming growth factor-β superfamily” (Scientific Reports, 2021).

B1: GDF11 (ligand, human, UniProt O95390 299-407, looked up)
chain: NLGLDCDEHSSESRCCRYPLTVDFEAFGWDWIIAPKRYKANYCSGQCEYMFMQKYPHTHLVQQANPRGSAGPCCTPTKMSPINMLYFNDKQQIIYGKIPGMVVDRCGCS
notes: source: generated in house
B2: activin B (ligand, human, UniProt P09529 293-407, looked up)
chain: GLECDGRTNLCCRQQFFIDFRLIGWNDWIIAPTGYYGNYCEGSCPAYLAGVPGSASSFHTAVVNQYRMRGLNPGTVNSCCIPTKLSTMSMLYFDDEYNIVKRDVPNMIVEECGCA
notes: source: generated in house
B3: BMP10 (ligand, human, UniProt O95393 317-424, looked up)
chain: NAKGNYCKRTPLYIDFKEIGWDSWIIAPPGYEAYECRGVCNYPLAEHLTPTKHAIIQALVHLKNSQKASKACCVPTKLEPISILYLDKGVVTYKFKYEGMAVSECGCR
notes: source: bought: R&D Systems
B4: BMP6 (ligand, human, UniProt P22004 375-513, looked up)
chain: SASSRRRQQSRNRSTQSQDVARVSSASDYNSSELKTACRKHELYVSFQDLGWQDWIIAPKGYAANYCDGECSFPLNAHMNATNHAIVQTLVHLMNPEYVPKPCCAPTKLNAISVLYFDDNSNVILKKYRNMVVRACGCH
notes: source: bought: R&D Systems
B5: activin A (ligand, human, UniProt P08476 311-426, looked up)
chain: GLECDGKVNICCKKQFFVSFKDIGWNDWIIAPSGYHANYCEGECPSHIAGTSGSSLSFHSTVINHYRMRGHSPFANLKSCCVPTKLRPMSMLYYDDGQNIIKKDIQNMIVEECGCS
notes: source: generated in house
B6: ALK3-Fc:ALK3-Fc homodimer (human ALK3 ECD fused to human IgG1 Fc) (Fc fusion, UniProt P36894 24-152, looked up)
chain: QNLDSMLHGTGMKSDSDQKKSENGVTLAPEDTLPFLKCYCSGHCPDDAINNTCITNGHCFAIIEEDDQGETTLASGCMKYEGSDFQCKDSPKAQLRRTIECCRTNLCNQYLQPTLPPVVIGPFFDGSIR
notes: not shown: Fc (human IgG1), C-terminal, kept
B7: BMP4 (ligand, human, UniProt P12644 293-408, looked up)
chain: SPKHHSQRARKKNKNCRRHSLYVDFSDVGWNDWIVAPPGYQAFYCHGDCPFPLADHLNSTNHAIVQTLVNSVNSSIPKACCVPTELSAISMLYLDEYDKVVLKNYQEMVVEGCGCR
notes: source: bought: R&D Systems
B8: BMP7 (ligand, human, UniProt P18075 293-431, looked up)
chain: STGSKQRSQNRSKTPKNQEALRMANVAENSSSDQRQACKKHELYVSFRDLGWQDWIIAPEGYAAYYCEGECAFPLNSYMNATNHAIVQTLVHFINPETVPKPCCAPTQLNAISVLYFDDSSNVILKKYRNMVVRACGCH
notes: source: bought: R&D Systems
B9: GDF3 (ligand, human, UniProt Q9NR23 251-364, looked up)
chain: AAIPVPKLSCKNLCHRHQLFINFRDLGWHKWIIAPKGFMANYCHGECPFSLTISLNSSNYAFMQALMHAVDPEIPQAVCIPTKLSPISMLYQDNNDNVILRHYEDMVVDECGCG
notes: source: bought: R&D Systems
B10: BMP9 (ligand, human, UniProt Q9UK05 320-429, looked up)
chain: SAGAGSHCQKTSLRVNFEDIGWDSWIIAPKEYEAYECKGGCFFPLADDVTPTKHAIVQTLVHLKFPTKVGKACCVPTKLSPISVLYKDDMGVPTLKYHYEGMSVAECGCR
notes: source: generated in house

molecular target: T1, IIB-Fc:ALK7-Fc heterodimer (human ActRIIB ECD-Fc paired with human ALK7 ECD-Fc) (human, UniProt Q13705-1 19-134; Q8NER5-1 25-113); test: SPR; Biacore 8K, 37 °C; Fc-fusion receptor dimers captured by anti-human Fc antibody on a CM5 chip (100-150 RU); ligands injected in two-fold dilution series (300 s association, 600 s dissociation); HBS-EP+ supplemented with 350 mM NaCl and 0.5 mg/mL BSA; 1:1 Langmuir model with a term for mass transport; details: both partners purified
T1 construct: activin receptor type IIB (ActRIIB) extracellular domain, human, aa 19-134 of NP_001097.2; activin receptor-like kinase 7 (ALK7) extracellular domain, human, aa 25-113 of NP_660302.2; copies: 1 + 1
T1 sequence (Q13705 19-134, chain 1 of 2): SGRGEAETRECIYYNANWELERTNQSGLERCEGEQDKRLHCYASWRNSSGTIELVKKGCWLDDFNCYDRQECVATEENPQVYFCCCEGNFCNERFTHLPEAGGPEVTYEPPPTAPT
T1 sequence (Q8NER5 25-113, chain 2 of 2): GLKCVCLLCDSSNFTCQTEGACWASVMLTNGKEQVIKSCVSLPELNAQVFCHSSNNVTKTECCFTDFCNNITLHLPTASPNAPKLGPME

Kd [nM] | koff [s⁻¹] | kon [M⁻¹ s⁻¹] | Binder
0.0474 | 0.000642 | 1.35e+07 | B1
0.0153 | 0.000114 | 7.4e+06 | B2
0.0706 | 0.00314 | 4.45e+07 | B3
0.715 | 0.00424 | 5.9e+06 | B4

molecular target: T2, IIB-Fc:ALK4-Fc heterodimer (human ActRIIB ECD-Fc paired with human ALK4 ECD-Fc) (human, UniProt Q13705-1 19-134; P36896-1 24-126); test: as above; details: both partners purified
T2 construct: activin receptor type IIB (ActRIIB) extracellular domain, human, aa 19-134 of NP_001097.2; copies: 1 + 1
T2 sequence (Q13705 19-134, chain 1 of 2): as the sequence (Q13705 19-134, chain 1 of 2) above
T2 sequence (P36896 24-126, chain 2 of 2): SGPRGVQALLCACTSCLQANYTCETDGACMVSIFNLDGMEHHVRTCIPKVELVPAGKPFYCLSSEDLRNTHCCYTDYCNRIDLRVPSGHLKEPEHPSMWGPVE

Kd [nM] | koff [s⁻¹] | kon [M⁻¹ s⁻¹] | Binder
0.0108 | 0.000164 | 1.52e+07 | B1
0.0153 | 8.07e-05 | 5.3e+06 | B2
0.0184 | 0.000139 | 7.4e+06 | B5
0.067 | 0.0028 | 4.18e+07 | B3
0.758 | 0.00573 | 7.6e+06 | B4

molecular target: B4; test: as above; details: both partners purified

Kd [nM] | koff [s⁻¹] | kon [M⁻¹ s⁻¹] | Binder
9.03 | 0.00569 | 600000 | B6

molecular target: T3, IIB-Fc:ALK3-Fc heterodimer (human ActRIIB ECD-Fc paired with human ALK3 ECD-Fc) (human, UniProt Q13705-1 19-134; P36894 24-152); test: as above; details: both partners purified
T3 construct: activin receptor type IIB (ActRIIB) extracellular domain, human, aa 19-134 of NP_001097.2; copies: 1 + 1

Kd [nM] | koff [s⁻¹] | kon [M⁻¹ s⁻¹] | Binder
0.0485 | 0.000641 | 1.32e+07 | B1
0.0696 | 0.000335 | 4.8e+06 | B2
0.0335 | 0.000719 | 2.15e+07 | B3
0.046 | 0.000214 | 4.6e+06 | B4
0.0041 | – | – | B7
0.165 | 0.00197 | 1.19e+07 | B8

molecular target: T4, IIB-Fc:IIB-Fc homodimer (human ActRIIB ECD fused to human IgG1 Fc) (human, UniProt Q13705-1 19-134); test: as above; details: both partners purified
T4 construct: activin receptor type IIB (ActRIIB) extracellular domain, human, aa 19-134 of NP_001097.2; Chains linked by disulfide bonds between the Fc domains; a form with murine IgG2a Fc was used only in mice; also called ActRIIB-Fc homodimer; ActRIIB-Fc; not shown: Fc (human IgG1), C-terminal, kept
T4 sequence (Q13705 19-134): as the sequence (Q13705 19-134, chain 1 of 2) above

Kd [nM] | koff [s⁻¹] | kon [M⁻¹ s⁻¹] | Binder
0.0039 | 7.56e-05 | 1.94e+07 | B1
0.0038 | 2.19e-05 | 5.7e+06 | B2
0.64 | 0.00188 | 2.9e+06 | B9
0.0109 | 8.45e-05 | 7.8e+06 | B5
0.0065 | 0.000121 | 1.86e+07 | B3
5.43 | – | – | B7
0.0933 | 0.0011 | 1.24e+07 | B10

molecular target: T1, IIB-Fc:ALK7-Fc heterodimer (human …); test: SPR; same experiment as a1 (Biacore 8K, 37 °C, receptor dimers captured by anti-human Fc, HBS-EP+ with 350 mM NaCl added and 0.5 mg/mL BSA) but fitted with a bivalent analyte model (bold cells of Table 1); the first binding step is the one considered; details: both partners purified

Kd [nM] | koff [s⁻¹] | kon [M⁻¹ s⁻¹] | Binder
> 10 | > 0.01 | 1.1e+06 | B9
0.41 | 0.00815 | 2e+07 | B5
> 10 | > 0.01 | 700000 | B8
2.3 | > 0.01 | 7.1e+06 | B10

molecular target: T2, IIB-Fc:ALK4-Fc heterodimer (human …); test: as above; details: both partners purified

Kd [nM] | koff [s⁻¹] | kon [M⁻¹ s⁻¹] | Binder
> 10 | > 0.01 | 1.1e+06 | B9
> 10 | > 0.01 | 800000 | B8
1.36 | > 0.01 | 8.9e+06 | B10

molecular target: T3, IIB-Fc:ALK3-Fc heterodimer (human …); test: as above; details: both partners purified

Kd [nM] | koff [s⁻¹] | kon [M⁻¹ s⁻¹] | Binder
> 10 | > 0.01 | 900000 | B9
0.164 | 0.00733 | 4.47e+07 | B5
1.76 | > 0.01 | 9.7e+06 | B10
